Where “and” joins values, the source holds several entries; their conditions need not be identical. Equal values may be shown once.
What was measured:
[1] = biological target: Can f2-sumo-His (dog (Canis familiaris)) (UniProt O18874); assay: serum ELISA, 1:8K, Alpaca 1 block
[2] = biological target: T1, recombinant His-tagged Der p2 (dust mite, UniProt P49278 18-146); assay: serum ELISA, 1:8K, Alpaca 1 block
T1 construct: also called Der p2-His; Der p2-HIS; not shown: His tag
T1 sequence (looked up): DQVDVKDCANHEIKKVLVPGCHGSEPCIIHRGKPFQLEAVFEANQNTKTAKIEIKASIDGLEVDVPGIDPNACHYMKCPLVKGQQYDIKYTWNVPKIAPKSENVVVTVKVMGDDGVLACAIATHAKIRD

[3] = biological target: recombinant His-tagged Can f1 (dog (Canis familiaris)) (UniProt O18873); assay: serum ELISA, 1:8K, Alpaca 1 block
recombinant His-tagged Can f1 (dog (Canis familiaris)), sequence (O18873 19-174 limits assumed): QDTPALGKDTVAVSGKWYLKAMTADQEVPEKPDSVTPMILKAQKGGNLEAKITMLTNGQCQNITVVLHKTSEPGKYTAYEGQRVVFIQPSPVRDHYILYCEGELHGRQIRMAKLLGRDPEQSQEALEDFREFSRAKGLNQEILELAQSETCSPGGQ

[4] = biological target: recombinant His-tagged Can f2 (dog (Canis familiaris)) (UniProt O18874); assay: serum ELISA, 1:8K, Alpaca 1 block
recombinant His-tagged Can f2 (dog (Canis familiaris)), sequence (O18874 19-180 limits assumed): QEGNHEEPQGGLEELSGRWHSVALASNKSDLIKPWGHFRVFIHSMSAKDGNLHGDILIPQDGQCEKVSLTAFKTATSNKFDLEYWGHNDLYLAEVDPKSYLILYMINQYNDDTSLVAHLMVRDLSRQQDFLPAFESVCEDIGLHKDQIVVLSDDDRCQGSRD

[5] = biological target: Can f2-sumo-His (dog (Canis familiaris)) (UniProt O18874); assay: serum ELISA, 1:32k, Alpaca 2 block
[6] = biological target: T1, recombinant His-tagged Der p2; assay: serum ELISA, 1:32k, Alpaca 2 block
[7] = biological target: recombinant His-tagged Can f1 (dog (Canis familiaris)) (UniProt O18873); assay: serum ELISA, 1:32k, Alpaca 2 block
[8] = biological target: recombinant His-tagged Can f2 (dog (Canis familiaris)) (UniProt O18874); assay: serum ELISA, 1:32k, Alpaca 2 block
[9] = biological target: T1, recombinant His-tagged Der p2; assay: serum ELISA, 1:2K, Alpaca 2 block
[10] = biological target: recombinant His-tagged Can f1 (dog (Canis familiaris)) (UniProt O18873); assay: serum ELISA, 1:2K, Alpaca 2 block
[11] = biological target: Can f2-sumo-His (dog (Canis familiaris)) (UniProt O18874); assay: serum ELISA, 1:16K, Alpaca 2 block
[12] = biological target: T1, recombinant His-tagged Der p2; assay: serum ELISA, 1:16K, Alpaca 2 block
[13] = biological target: recombinant His-tagged Can f1 (dog (Canis familiaris)) (UniProt O18873); assay: serum ELISA, 1:16K, Alpaca 2 block
[14] = biological target: recombinant His-tagged Can f2 (dog (Canis familiaris)) (UniProt O18874); assay: serum ELISA, 1:16K, Alpaca 2 block
[15] = biological target: Can f2-sumo-His (dog (Canis familiaris)) (UniProt O18874); assay: serum ELISA, 1:2K, Alpaca 1 block
[16] = biological target: T1, recombinant His-tagged Der p2; assay: serum ELISA, 1:2K, Alpaca 1 block
[17] = biological target: recombinant His-tagged Can f2 (dog (Canis familiaris)) (UniProt O18874); assay: serum ELISA, 1:2K, Alpaca 1 block
[18] = biological target: Can f2-sumo-His (dog (Canis familiaris)) (UniProt O18874); assay: serum ELISA, 1:64K, Alpaca 1 block
[19] = biological target: T1, recombinant His-tagged Der p2; assay: serum ELISA, 1:64K, Alpaca 1 block
[20] = biological target: recombinant His-tagged Can f1 (dog (Canis familiaris)) (UniProt O18873); assay: serum ELISA, 1:64K, Alpaca 1 block
[21] = biological target: recombinant His-tagged Can f2 (dog (Canis familiaris)) (UniProt O18874); assay: serum ELISA, 1:64K, Alpaca 1 block
[22] = biological target: Can f2-sumo-His (dog (Canis familiaris)) (UniProt O18874); assay: serum ELISA, 1:16K, Alpaca 1 block
[23] = biological target: T1, recombinant His-tagged Der p2; assay: serum ELISA, 1:16K, Alpaca 1 block
[24] = biological target: recombinant His-tagged Can f1 (dog (Canis familiaris)) (UniProt O18873); assay: serum ELISA, 1:16K, Alpaca 1 block
[25] = biological target: recombinant His-tagged Can f2 (dog (Canis familiaris)) (UniProt O18874); assay: serum ELISA, 1:16K, Alpaca 1 block
[26] = biological target: Can f2-sumo-His (dog (Canis familiaris)) (UniProt O18874); assay: serum ELISA, 1:32k, Alpaca 1 block
[27] = biological target: T1, recombinant His-tagged Der p2; assay: serum ELISA, 1:32k, Alpaca 1 block
[28] = biological target: recombinant His-tagged Can f1 (dog (Canis familiaris)) (UniProt O18873); assay: serum ELISA, 1:32k, Alpaca 1 block
[29] = biological target: recombinant His-tagged Can f2 (dog (Canis familiaris)) (UniProt O18874); assay: serum ELISA, 1:32k, Alpaca 1 block
[30] = biological target: Can f2-sumo-His (dog (Canis familiaris)) (UniProt O18874); assay: serum ELISA, 1:1K, Alpaca 1 block
[31] = biological target: T1, recombinant His-tagged Der p2; assay: serum ELISA, 1:1K, Alpaca 1 block
[32] = biological target: recombinant His-tagged Can f1 (dog (Canis familiaris)) (UniProt O18873); assay: serum ELISA, 1:1K, Alpaca 1 block
[33] = biological target: recombinant His-tagged Can f2 (dog (Canis familiaris)) (UniProt O18874); assay: serum ELISA, 1:1K, Alpaca 1 block
[34] = biological target: Can f2-sumo-His (dog (Canis familiaris)) (UniProt O18874); assay: serum ELISA, 1:64K, Alpaca 2 block
[35] = biological target: T1, recombinant His-tagged Der p2; assay: serum ELISA, 1:64K, Alpaca 2 block
[36] = biological target: recombinant His-tagged Can f1 (dog (Canis familiaris)) (UniProt O18873); assay: serum ELISA, 1:64K, Alpaca 2 block
[37] = biological target: recombinant His-tagged Can f2 (dog (Canis familiaris)) (UniProt O18874); assay: serum ELISA, 1:64K, Alpaca 2 block

Can f2-sumo-His (dog (Canis familiaris)), sequence (O18874 19-180): as the sequence (O18874 19-180 limits assumed) above

- OD at 450 nm [1]: 0.072 OD
- OD at 450 nm [2]: 0.104 OD and 0.099 OD
- OD at 450 nm [3]: 0.116 OD and 0.117 OD
- OD at 450 nm [4]: 0.076 OD
- OD at 450 nm [5]: 0.071 OD and 0.061 OD
- OD at 450 nm [6]: 0.082 OD
- OD at 450 nm [7]: 0.091 OD and 0.093 OD
- OD at 450 nm [8]: 0.075 OD and 0.068 OD
- OD at 450 nm [9]: 0.152 OD and 0.15 OD
- OD at 450 nm [10]: 0.185 OD and 0.179 OD
- OD at 450 nm [11]: 0.074 OD and 0.081 OD
- OD at 450 nm [12]: 0.091 OD and 0.089 OD
- OD at 450 nm [13]: 0.101 OD and 0.098 OD
- OD at 450 nm [14]: 0.08 OD and 0.075 OD
- OD at 450 nm [15]: 0.088 OD and 0.085 OD
- OD at 450 nm [16]: 0.149 OD and 0.154 OD
- OD at 450 nm [17]: 0.093 OD and 0.099 OD
- OD at 450 nm [18]: 0.057 OD and 0.058 OD
- OD at 450 nm [19]: 0.085 OD and 0.081 OD
- OD at 450 nm [20]: 0.103 OD
- OD at 450 nm [21]: 0.064 OD and 0.069 OD
- OD at 450 nm [22]: 0.071 OD
- OD at 450 nm [23]: 0.099 OD and 0.093 OD
- OD at 450 nm [24]: 0.101 OD and 0.11 OD
- OD at 450 nm [25]: 0.075 OD and 0.076 OD
- OD at 450 nm [26]: 0.056 OD and 0.057 OD
- OD at 450 nm [27]: 0.099 OD and 0.081 OD
- OD at 450 nm [28]: 0.102 OD and 0.107 OD
- OD at 450 nm [29]: 0.069 OD and 0.062 OD
- OD at 450 nm [30]: 0.119 OD and 0.111 OD
- OD at 450 nm [31]: 0.246 OD and 0.255 OD
- OD at 450 nm [32]: 0.294 OD and 0.342 OD
- OD at 450 nm [33]: 0.128 OD and 0.133 OD
- OD at 450 nm [34]: 0.07 OD and 0.057 OD
- OD at 450 nm [35]: 0.071 OD and 0.079 OD
- OD at 450 nm [36]: 0.088 OD and 0.087 OD
- OD at 450 nm [37]: 0.07 OD and 0.062 OD
Substance: Negative serum taken from naïve alpacas

Reference: US20240352105A1, “COMPOSITIONS AND METHODS FOR NEUTRALIZING ANTIGENS” (PACAGEN, INC, priority 2023, published 2024)
